According to US20230348603A1:

Assays:
[1] = target: Human VSIG4-L-Fc (human); assay: BLI cross-blocking on hVSIG4-L-Fc, competitor 14C05 first
[2] = target: Human VSIG4-L-Fc (human); assay: BLI cross-blocking on hVSIG4-L-Fc, competitor 12A12 first

Chain of Human VSIG4-L-Fc (human) (chain, as listed by the source limits assumed): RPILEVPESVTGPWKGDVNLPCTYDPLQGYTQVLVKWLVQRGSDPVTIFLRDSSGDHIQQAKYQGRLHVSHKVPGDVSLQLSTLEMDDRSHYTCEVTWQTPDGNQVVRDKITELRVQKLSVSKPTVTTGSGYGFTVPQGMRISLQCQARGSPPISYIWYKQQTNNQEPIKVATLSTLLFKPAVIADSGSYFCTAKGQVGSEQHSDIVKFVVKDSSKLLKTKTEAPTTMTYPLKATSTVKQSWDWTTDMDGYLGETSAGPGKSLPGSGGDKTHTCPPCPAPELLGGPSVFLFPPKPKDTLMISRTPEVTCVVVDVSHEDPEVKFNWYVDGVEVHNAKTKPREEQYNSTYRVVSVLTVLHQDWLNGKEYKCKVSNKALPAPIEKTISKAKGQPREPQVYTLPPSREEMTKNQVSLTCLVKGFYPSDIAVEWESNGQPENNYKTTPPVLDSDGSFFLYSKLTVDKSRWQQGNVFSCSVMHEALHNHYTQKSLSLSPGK

binding signal (nm shift) [1]: 0 nm
binding signal (nm shift) [2]: 0 nm
Substance: isotype control antibody (Table 16)
